The values that follow come from patent US20230295324A1 (published 2023).

For experiment [1], the target named is T1, human OX40 on cells (CHO-K1/hu OX40) (human, UniProt P43489 29-277).
T1 sequence (looked up): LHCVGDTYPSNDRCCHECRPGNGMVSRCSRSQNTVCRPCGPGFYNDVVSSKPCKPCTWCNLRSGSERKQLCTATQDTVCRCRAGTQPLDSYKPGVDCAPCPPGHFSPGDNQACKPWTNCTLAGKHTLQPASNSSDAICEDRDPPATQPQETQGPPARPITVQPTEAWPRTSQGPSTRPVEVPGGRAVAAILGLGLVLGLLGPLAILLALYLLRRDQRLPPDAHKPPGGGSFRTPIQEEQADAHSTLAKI
Description: cell-based or functional assay.

Experiment [2] has as its target T1, human OX40 on cells (CHO-K1/hu OX40). Put plainly: FACS, CHO-K1/hu OX40 cells. Summed up:
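Binding of anti-human OX40 HCAb antibodies measured by flow cytometry on CHO-K1 cells stably overexpressing human OX40. Cells incubated with 3-fold serially diluted antibodies 1 h at 4 °C in the dark, washed, then secondary staining 30 min at 4 °C; fluorescence read by FACS.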
On the technique in general: In flow cytometry, cells or beads pass a laser one at a time.

In experiment [3] the target is T2, cynomolgus monkey OX40 protein (Novoprotein, #CB17) (cynomolgus monkey).
T2 construct: Bought recombinant protein; also called cyno OX40
Put plainly: ELISA, coated cyno OX40 protein.

The target of experiment [4] is T3, human CD40 on CHO-K1 cells (CHO-K1/hu CD40) (human, UniProt P25942 21-277).
T3 construct: whole, on cells
Put plainly: flow cytometry on CHO-K1/hu CD40 cells. The procedure: (§1) This example is intended to investigate the specificity of in vitro binding of anti-human OX40 HCAb monoclonal antibodies by detecting 3 receptors of the TNF tumor necrosis factor receptor superfamily and ICOS by flow cytometry. The antibody binding assay at the cellular level was performed using a CHO-K1 cell strain overexpressing human OX40 (CHO-K1/hu OX40), a CHO-K1 cell strain overexpressing human CD40 (CHO-K1/hu CD40, Beijing KYinno, #KC-1286), a CHO-K1 cell strain overexpressing human 4-1BB (CHO-K1/hu 4-1BB, Genscript, #M00538) and an HEK293 cell strain overexpressing human ICOS (HEK293T/ICOS, Genscript, #KC-0210). Briefly, these cells were digested and resuspended in F12K or DMEM complete medium, and the cell density was adjusted to 1×10⁶ cells/mL. The cells were seeded in a 96-well V-bottom plate at 100 μL/well, and centrifuged, and then the supernatant was discarded. Then, the test antibodies diluted in a 3-fold gradient were added at 100 μL/well. The cells were incubated at 4° C. for 1 h away from light. Thereafter, the cells in each well were rinsed twice with 100 μL of pre-cooled PBS, and centrifuged at 500 g at 4° C. for 5 min, and then the supernatant was discarded. […] Finally, the cells in each well were resuspended in 200 μL of pre-cooled PBS, and the fluorescence signal values were read using NovoCyte flow cytometer (ACEA Biosciences).

Experiment [5] deals with T4, human 4-1BB on CHO-K1 cells (CHO-K1/hu 4-1BB) (human, UniProt Q07011 24-255).
T4 construct: whole, on cells
Description: flow cytometry on CHO-K1/hu 4-1BB cells. As to the method: as §1

As a reminder, the EC50 is the concentration needed to bring the measured effect to its halfway point.

T3 sequence (P25942 21-277): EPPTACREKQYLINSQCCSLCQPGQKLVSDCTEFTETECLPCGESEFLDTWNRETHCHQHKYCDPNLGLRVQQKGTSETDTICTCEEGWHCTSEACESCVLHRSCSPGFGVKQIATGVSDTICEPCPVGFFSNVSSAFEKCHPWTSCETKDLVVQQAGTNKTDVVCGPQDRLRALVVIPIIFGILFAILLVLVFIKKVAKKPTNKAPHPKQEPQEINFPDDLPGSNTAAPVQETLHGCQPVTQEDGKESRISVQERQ
T4 sequence (Q07011 24-255): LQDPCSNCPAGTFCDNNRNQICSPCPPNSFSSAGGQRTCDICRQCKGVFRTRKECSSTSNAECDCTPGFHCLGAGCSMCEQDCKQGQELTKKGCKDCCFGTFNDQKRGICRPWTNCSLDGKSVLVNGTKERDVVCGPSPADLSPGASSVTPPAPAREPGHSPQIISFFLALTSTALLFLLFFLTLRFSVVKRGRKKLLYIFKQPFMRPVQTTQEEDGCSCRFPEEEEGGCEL

B1: PR002067 (antibody, human IgG1, V domains shown)
VH: EVQLLESGGGLVQPGGSLRLSCAASGFTFSSYAMSWVRQAPGKGLEWVSAISGRGGSTFYADSVRGRFTISRDNSKNTLYLQMNSLRAEDTAMYYCVDGTTGTTDVDYWGQGTLVTVSS
notes: no light chain; also called anti-OX40 HCAb antibody
With B1, in experiment [1], the “EC50, HEK293/OX40/NF-kb luciferase reporter” value is 5.37 nM and the “Maximum fluorescence signal value, HEK293/OX40/NF-kb luciferase reporter” value is 137000 luminescence. In addition, in experiment [2], the EC50 was determined as 5.25 nM and the “Maximum MFI” value turned out to be 3010 MFI. Besides, in experiment [3], the EC50 was 0.232 nM and the “Maximum OD” value was determined as 2.16 OD. For the same molecule, in experiment [4], the binding result is on record as “no binding”. Also, in experiment [5], the binding result is “no binding”.
